This note sets out measurements from patent publication US7063946B2, “Methods, reagents, kits and apparatus for protein function analysis” (Meso Scale Technologies, LLC., priority 2001, dated 2006).

Assay [1] concerns pEY. The assay is described as follows: In vitro kinase library screen: activity towards pEY. The format is biochemical. The following applies: 5 ul of expressed protein. In a few lines: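 Kinases made by in vitro transcription/translation, immobilised on streptavidin/avidin plates and washed with Tris/Triton and high-salt buffers. Incubated overnight at room temperature with 5 nM pEY, 100 µM ATP, Mg2+/Mn2+ and vanadate at pH 7.4. Phospho-pEY captured with biotinylated PY20 and detected by Sulfo-TAG anti-phosphotyrosine ECL.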

The test system of assay [2] is autophosphorylation (phosphotyrosine). Briefly: In vitro kinase library screen: autophosphorylation. The format is biochemical. In a few lines: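 Biotinylated SYK and EphA7 from in vitro transcription/translation, immobilized on streptavidin/avidin plates; autophosphorylation overnight at room temperature with 5 mM MgCl2, 5 mM MnCl2, 100 μM ATP, pH 7.4. Phosphotyrosine detected by Sulfo-TAG anti-phosphotyrosine (45 min) and ECL read-out.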

B1: 2654352: IMAGE clone protein: Fgfr2, fibroblast growth factor receptor 2 (protein, UniProt P21803 22-821, looked up)
Fibroblast growth factor …: RPSFSLVEDTTLEPEEPPTKYQISQPEAYVVAPGESLELQCMLKDAAVISWTKDGVHLGPNNRTVLIGEYLQIKGATPRDSGLYACTAARTVDSETWIFMVNVTDAISSGDDEDDTDSSEDVVSENRSNQRAPYWTNTEKMEKRLHACPAANTVKFRCPAGGNPTSTMRWLKNGKEFKQEHRIGGYKVRNQHWSLIMESVVPSDKGNYTCLVENEYGSINHTYHLDVVERSPHRPILQAGLPANASTVVGGDVEFVCKVYSDAQPHIQWIKHVEKNGSKNGPDGLPYLKVLKAAGVNTTDKEIEVLYIRNVTFEDAGEYTCLAGNSIGISFHSAWLTVLPAPVREKEITASPDYLEIAIYCIGVFLIACMVVTVIFCRMKTTTKKPDFSSQPAVHKLTKRIPLRRQVTVSAESSSSMNSNTPLVRITTRLSSTADTPMLAGVSEYELPEDPKWEFPRDKLTLGKPLGEGCFGQVVMAEAVGIDKDKPKEAVTVAVKMLKDDATEKDLSDLVSEMEMMKMIGKHKNIINLLGACTQDGPLYVIVEYASKGNLREYLRARRPPGMEYSYDINRVPEEQMTFKDLVSCTYQLARGMEYLASQKCIHRDLAARNVLVTENNVMKIADFGLARDINNIDYYKKTTNGRLPVKWMAPEALFDRVYTHQSDVWSFGVLMWEIFTLGGSPYPGIPVEELFKLLKEGHRMDKPTNCTNELYMMMRDCWHAVPSQRPTFKQLVEDLDRILTLTTNEEYLDLTQPLEQYSPSYPDTSSSCSSGDDSVFSPDPMPYEPCLPQYPHINGSVKT
With B1, the HTS signal in assay [1] is given as 296,481. Besides, in assay [2], the ECL signal is given as 180,059.

B2: 2644960: IMAGE clone protein: Kit, kit oncogene (protein, UniProt P05532 25-979, looked up)
Mast/stem cell growth factor …: SQPSASPGEPSPPSIHPAQSELIVEAGDTLSLTCIDPDFVRWTFKTYFNEMVENKKNEWIQEKAEATRTGTYTCSNSNGLTSSIYVFVRDPAKLFLVGLPLFGKEDSDALVRCPLTDPQVSNYSLIECDGKSLPTDLTFVPNPKAGITIKNVKRAYHRLCVRCAAQRDGTWLHSDKFTLKVRAAIKAIPVVSVPETSHLLKKGDTFTVVCTIKDVSTSVNSMWLKMNPQPQHIAQVKHNSWHRGDFNYERQETLTISSARVDDSGVFMCYANNTFGSANVTTTLKVVEKGFINISPVKNTTVFVTDGENVDLVVEYEAYPKPEHQQWIYMNRTSANKGKDYVKSDNKSNIRYVNQLRLTRLKGTEGGTYTFLVSNSDASASVTFNVYVNTKPEILTYDRLINGMLQCVAEGFPEPTIDWYFCTGAEQRCTTPVSPVDVQVQNVSVSPFGKLVVQSSIDSSVFRHNGTVECKASNDVGKSSAFFNFAFKGNNKEQIQAHTLFTPLLIGFVVAAGAMGIIVMVLTYKYLQKPMYEVQWKVVEEINGNNYVYIDPTQLPYDHKWEFPRNRLSFGKTLGAGAFGKVVEATAYGLIKSDAAMTVAVKMLKPSAHLTEREALMSELKVLSYLGNHMNIVNLLGACTVGGPTLVITEYCCYGDLLNFLRRKRDSFIFSKQEEQAEAALYKNLLHSTEPSCDSSNEYMDMKPGVSYVVPTKTDKRRSARIDSYIERDVTPAIMEDDELALDLDDLLSFSYQVAKGMAFLASKNCIHRDLAARNILLTHGRITKICDFGLARDIRNDSNYVVKGNARLPVKWMAPESIFSCVYTFESDVWSYGIFLWELFSLGSSPYPGMPVDSKFYKMIKEGFRMVSPEHAPAEMYDVMKTCWDADPLKRPTFKQVVQLIEKQISDSTKHIYSNLANCNPNPENPVVVDHSVRVNSVGSSASSTQPLLVHEDA
With B2, in assay [1], the HTS signal is listed as 9,164. The ECL signal in assay [2] was 88,966.
